Assay results reported in patent CN113912708A (INST MILITARY MEDICINE ACADEMY MILITARY SCIENCES PLA, dated 2022).

Tests used:
MERS-CoV RBD-Fc蛋白 = MERS-CoV RBD-Fc蛋白 (MERS-CoV (RBD); human (IgG Fc))
MERS-CoV假病毒 = MERS-CoV假病毒 (MERS-CoV); assay: cell-based or functional assay

B1: 单域重链抗体Nano-Anti-MRBD (VHH)
VHH: QVQLVESGGGLVQPGGSLRLSCAASGFSFIDYAMSWARQAPGKGLEWVSSISPGYGTTYYTDSVKGRFTISRDNAKNMLYLQMNSLKPEDTATYYCAKGSDPFTPGIQRGQGTQVTVSS
- EC50 (MERS-CoV RBD-Fc蛋白): 0.744 ng/mL
- 对MERS-CoV假病毒进入细胞的抑制率 (IC50, luciferase RLU, Huh-7细胞) (MERS-CoV假病毒): 10.7 ng/mL
